Laboratory results as given in patent US20020164657A1, “Assays for assessing A beta-Tau aggregation” (priority 2001, published 2002).

Biological target: T1, tau phosphorylated by TPK II (Homo sapiens, UniProt P10636)
T1 construct: Human recombinant tau 1-383 isoform; made in house; host or cells: tau and p20: E. coli; cdk5: baculovirus-infected insect cells
Test: Gel-shift assay of TPK II tau phosphorylation
Assay type: biochemical
Conditions: 3 μM tau, 50 nM TPK II, 60 μM Aβ peptide, 4 hours, FIG. 8
Protocol: Gel-shift assays were done by incubating 3 μM tau with 50 nM TPK II and/or 167 units/ml TPK I for the indicated time at 37° C. in a total volume of 20 μl containing 40 mM Tris, pH 7.5, 10 mM MgCl2, 1 mM DTT, and 1 mM ATP. Aβ peptides were added at 10× concentrations to the assay to achieve the final concentration indicated. Following incubation the samples were electrophoresed on 12% SDS-PAGE and stained with Coomassie Blue R-250.

T1 sequence (P10636 1-383 isoform P10636-6): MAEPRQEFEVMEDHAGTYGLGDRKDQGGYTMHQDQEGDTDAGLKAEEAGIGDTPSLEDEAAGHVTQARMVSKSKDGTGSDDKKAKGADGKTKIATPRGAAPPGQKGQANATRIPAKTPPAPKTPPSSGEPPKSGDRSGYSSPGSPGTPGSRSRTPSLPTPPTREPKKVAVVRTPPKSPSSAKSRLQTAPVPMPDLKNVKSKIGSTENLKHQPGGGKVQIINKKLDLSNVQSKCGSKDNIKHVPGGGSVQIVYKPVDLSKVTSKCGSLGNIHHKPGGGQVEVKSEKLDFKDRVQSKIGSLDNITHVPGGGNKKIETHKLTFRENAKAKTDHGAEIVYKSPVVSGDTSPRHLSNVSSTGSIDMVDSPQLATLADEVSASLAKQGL

Row | effect on tau gel shift | Substance
1 | no effect | Aβ 1-40: beta-amyloid peptide, residues 1-40, obtained from Bachem; control peptide
2 | no effect | Aβ 25-35: beta-amyloid peptide fragment 25-35, obtained from Bachem; control peptide (GSNKGAIIGLM)
